Target: original 2019-nCoV RBD protein (SARS-CoV-2, UniProt P0DTC2)
Experiment: Luminex bead-based competitive binding assay
Settings: both partners purified

B1: P5C3 LS monoclonal antibody (antibody, V domains shown)
VH: QMQLVQSGPEVKKPGTSVKVSCKASGFTFTSSAVQWVRQARGQRLEWIGWIVVGSGNTDYAQQFQERVTITRDMSTSTAYMELSSLGSEDTAVYYCAAPNCSGGSCYDGFDLWGQGTMVTVSS
VL: EIVLTQSPGTLSLSPGERATLSCRGSQSVRSSYLGWYQQKPGQAPRLLIYGASSRATGIPDRFSGSGSGTDFTLTISRLEPEDFAVYYCQQYGSSPWTFGQGTKVEIK
B1: binds.

B2: P2G3 LS human IgG1 monoclonal antibody (antibody, V domains shown)
VH: EVQLVESGGGLVQPGRSLRLSCAASGFRFDDYALHWVRQAPEKGLEWVSGISWNSNNIGYAESVKGRFTISRDTAKKSLYLQMNDLRAEDTALYYCVKDRHYDSSGYFVNGFDIWGQGTLVTVSA
VL: DIQLTQSPSFLSASVGDRVTVTCRASQGISSYVAWYQQKAGKAPTLLIYTASTLQSGVPSRFSGSGSGTEFTLTISSLQPEDFATYYCQQLHSYPVTFGQGTRLDIE
B2: binds.

— article PMC9418005 (Nature Microbiology, 2022)
